Experimental findings from the nanobody polyreactivity screen of Harvey et al. (2022) are described below.

The nature of this data set: yeast display, Sf9 membrane polyspecificity reagent, FACS + sequencing; frameworks hold sequencing errors. An outline of the steps: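 Galactose-induced (36–48 hours) yeast carrying a synthetic nanobody display library were exposed to 10% biotinylated, detergent-solubilized Sf9 membrane reagent at 4 °C for 1 hour. FACS followed streptavidin microbead enrichment, using low and high (top ~1%) gates for expression (anti-HA) and reagent binding (streptavidin). Colony PCR, MiSeq 2 × 250 sequencing and CDR-length filtering followed. Labels for polyreactivity reflect the gate of origin.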
Regarding “QVQLVESGGGLVQAGGSLRLSCAASGRTFKLYGMGWYRQAPVKEREFVAAITQGGGSTFYADSVKGRFTISRDNSKNTVYLQMNSLKPEDTAVYYCAARTQIFSRYRGFYSWGQGTQVTVSS”, the “polyreactivity (PSR sort gate)” value is given as “high polyreactivity”.
In the case of “QVQLVESGGGLVQAGGSLRLSCAASGRTFYNYAMGWYRQAPGKERELVAAITRGGSTYYADSVKGRFTISRDNAKNTVYLQMNSLKPEDTAVYYCNAYYYIPFEGRGYSKMDYWGQGTQVTVSS”, the “polyreactivity (PSR sort gate)” value is “high polyreactivity”.
To “QVQLVESGGGLVQAGGSLRLSCAASGSTFGIYAMGWYRQAPGKERELVAAISRSGDSTYYADSVKGRFTISRDNAKNTVYLQMNSLKPEDTAVYYCAADSFRLRYWAVTTHRVQYDYWGQGTQVTVSS” belongs “low polyreactivity”; to “QVQLVESGGGLVQAGGSLRLSCAASGITFPSYAMGWYRQAPGKEWELVATISRGDSTYYADSVKGRFTISRDNAKNTVYLQMNSLKPEDTAVYYCNARWWFQLYYYSTFAGYNYWGQGTQVTVSS”, “low polyreactivity”; to “QVQLVESGGGLVQAGGSLRLSCAASGSTFPPYAMGWYRQAPGKERELVAAIDWSDGTTYYADSVKGRFTISRDNAKNTVYLQMNSLKPEDTAVSYCSASLSQSEFDYWGQGTQVTVSS”, “low polyreactivity”.
As for “QVQLEESGAGLVQAGGSLRLSCAPSGIIYDGNAMGWYRKAPGKERELLASITSDSSTNYADSVKGRFTISRDNAKYTVYLHMNSLKPQDTAVYYCAADHWIAPRRDYWGQGTQVTVSS”, the “polyreactivity (PSR sort gate)” value was “low polyreactivity”.
On to “QVQLVESGGGLVQAGGSLRISCAASGIILSDNAMGWYRQAPGKEREFVAAITGAGGSTYYADSVKGRFTISRDNAKNTVYLQMNSLKPEDTAVYYCAAESYPLSYSSATLSPSYEYWGQGTQVTVSS”, for which the “polyreactivity (PSR sort gate)” value is reported as “low polyreactivity”.
Consider “QVQLVESGGGLVQAGGSLRLSCAASGRIFFVYAMGWYRQAPGKERELVAGIRSSGGSTYYADSVKGRFTISRDNAKNTVYLQMNSLKPEDTAVYYCAARRVGYPSPYSTYGMYYWGQGTQVTVSS”, for which the “polyreactivity (PSR sort gate)” value was “high polyreactivity”.
As to “QVQLVESGGGLVQAGGSLRLSCAASGSIFLYNAMGWYRQAPGKERELVATITYIGGRTYYADSVKGRFTISRDNAKNTVYLQMNSLKPEDTAVYYCAAEYYVISSPSFYEYDYWGQGTQVTVSS”, the “polyreactivity (PSR sort gate)” value is on record as “low polyreactivity”.
Then “QVQLVESGGGLVQAGGSLRLSCAASGNTFPGYAMGWYRQAPGKEREFVATITSNDGTTYYADSVKGRFTISRDNAKNTVYLQMNSLKPEDTAVYYSAKRLSDSWPPNWGYNYWGQGTQVTVTS”, with “low polyreactivity”; and “QFQLVESGGGLVQAGGSLRLSCAASGRIFYYYAMGWDRQAPGKERELVASINSVGTTTYADSVKGRFTISRDNAKNTVYLQMNSLKPEDTAVYYCARDTGSIYYDGYEYDYWGQGTQVTVSS”, with “low polyreactivity”.
As to “QVQHVESGGGLVQAGGSNRLSCASSGSTFPGNAMGWYRQAPGKERELVARINDGADTNYADSVKGRFTISRDNAKNTVFLQMNSLKPEDTAVYYCAKPFYDGRTHFVSWGQGTQVTVSS”, the “polyreactivity (PSR sort gate)” value is “low polyreactivity”.
Regarding “QVQLVESGGGLVQAGGSLRLSCAASGYTFYIYVMGWYRQAPGKERELVAAISSGDSTNYADSVKGRFTISRDNAKNTVYLQMNSLKPEDTAVYYCNAVHRSIARGGGMDYWGQGTQVTVSS”, the “polyreactivity (PSR sort gate)” value was “low polyreactivity”.
To “QVQLVESGGGLVQAGGSLRLSCAASGFTFVSNDMGWYRQAPGKERELVAAIRYRGGDTYYADSVKGRFTISRDNAKNTVYLQMNRLKPEDTAVYYCAVDVATYTAGWYYHGYDYWGQGTQVTVSS” belongs “low polyreactivity”; to “QVQLVESGGGLVQAGGSLRLSCAASGRILFGNMGWYRQAHGKERELVAAISRGTGSTDYADSVKGRFTISRDNAKNTVYLQMNSLKPEDTAVYYCYARSYRVHLHYWRKWEYDYWGQGTQVTVSS”, “high polyreactivity”; to “QFQLVESGGGLVQAGGSLRLSCAASGFTSYRNALGWYRQAPGKERELVAAISRGDSTYYADSVKGRFTISRDNAKNTVYLQMNSLKAEDTAVYYCATPPTVYGWLAGYDYWGQGTQVTVSS”, “low polyreactivity”.
In the case of “QVLLVESGGGLVQAGGSLRLSCAASGYIFNRYVMGWTIQAPGKERELVAAIYIRGGSTFYSDSVKGCFTISRDNAKYTVYLQMNSLKPDDSAVYYCDDGRYGDYGYWGQGTQLTVSS”, the “polyreactivity (PSR sort gate)” value was “high polyreactivity”.
Consider “QVQLVESGGGLVQAGGSLRLSCAASGRIFQINAMGWYRQAPGKERELVAAISWSDDTTYYADSVKGRFTISRDNAKNTVYLQMISLKPEDTAVYYCAAERGQDYSYSGDDDYWGQGTQVTVSS”, for which the “polyreactivity (PSR sort gate)” value is recorded as “high polyreactivity”.
For “QFQLVESGGGLVQAGGSLRLSCAASGRTLYGYAMGLYRQAPGKERELVAAISGSGTITYYADSVKGRFTISRDNAKNTVYLQMNSLKPEDTAVYYCNKRRAGQSRRVDSWGQGTQVTVSS”, the “polyreactivity (PSR sort gate)” value is on record as “high polyreactivity”.
Regarding “QVQLVESGGGLVQAGGSLRLSCAASGFIFIQYAMGWYRQAPGKERELVAAISRSGGSTSYADSVKGRFTISRDNAKNTVYLQMNSLKPEDTAVYYCNRYYGSSGHGRPNEKYGYWGQGTQVTVSS”, the “polyreactivity (PSR sort gate)” value was “low polyreactivity”.
As to “QVQLVESGGGLVQAGGSLRLSCAASGSIFPAYAMGWYRQAPGKERELVAAITFSGGRTYYADSVKGRFTISRDNAKNTVYLQMNSLKPEDTAVYYCAAYGAPSGTGAKYGYWGQGTQVTVSS”, the “polyreactivity (PSR sort gate)” value is listed as “low polyreactivity”.
For the sequence “QVQLVESGGGLVQAGGSLRLSCAASGYTFYAYAMGWYRQAPGKERELVATISSGGRTYYADSVKGLFTISRDNAKNTVYLQMNSLKPEDTAVYYCAARKTRYISRFDYWGQGTQVTVSS”, the “polyreactivity (PSR sort gate)” value was “high polyreactivity”.
Take “QVQLVESGGGLVQAGRSLRLSCAASGRIFYGYAMGWYRQAPGRERELVAANTYIGGTYYADSVKGRFTISRDNAKNTVYLQMKSLKPEDTAVYYCATEPFYTYGYYTYPYWYDYWGQATQVTVSS”: the “polyreactivity (PSR sort gate)” value is “low polyreactivity”.
“QVQLVESGGGLVQAGGSLRLSCAASGSTFDENAMGWYRQAPGKERELVAGITTNGGSTSYADSVKGRFTISRDNAKNTVYLQMNSLKPEDTAVYYCAKGLYVQFDYWGQGSQVTVSS”: the “polyreactivity (PSR sort gate)” value is on record as “low polyreactivity”.
In the case of “QVQLVESGGGLVQAGGSLRLSCAASGITFYYYVMGWYRQAPGKERELVAAIDSGDSTYYADSVKGRFTISRDNAKNTVYLQMNSLKPEDTAVYYCAVDYEADNELNGPDQEYGRDSWGQGTQVTVSS”, the “polyreactivity (PSR sort gate)” value is listed as “low polyreactivity”.
Turning to “QVKLVESGGGLVQAGGSLRLSCAASGLTFRSYAMRWYRQAPGKERELVAAITRSGGSTYYADSVKGRFTISRDNAKNTVYLQMNRLKPEDTAVYYCAADYGRTLTGGDYWGQGTKVTVSS”, the “polyreactivity (PSR sort gate)” value is recorded as “high polyreactivity”.
With “QVQLVESGGGLVQAGGSLRLSCAASGNIFETNAMGWYRQAPGKERELVAAITRSGGSTYYADSVKGRFTISRDNAKNTVYLQMNSLKPEDTAVYYCAYYPYGYDYWGQGTQVTVSS”, the “polyreactivity (PSR sort gate)” value was “high polyreactivity”.
Consider “QVQLVESGGGLVQAGGSLRLSCAASGSNFRPYAMGWYRQAPGKERELVAAISSSGGSTYYADSVKGRFTISGDNAKHTVYLQMNSLKPEDTAVYYCAKDGVSFYWLNKYYYWGQGTQVTVSS”, for which the “polyreactivity (PSR sort gate)” value was “low polyreactivity”.
Then “QVQLVESVGGLVQAGGSLRLSLAASGFTFWYYAMGWYRQAPGKERELVAVINTSGGSTYADSVKGRFTISRDNAKNTVYLQMNSLKPEDTAVYYCAAEGISTYPYDYCGQGTQVTVSS”, with “low polyreactivity”; and “QVQRVESGGGLVQAGGSLRLSCAASGRTSYYNTMGWYRQAPGKEMELVAAITGRGDSTYYADSVKGRFTISRDNAKNTVYLQMNSLKPEDTAVYYCADDELHLLYRVSKFVDYNHWGQGTQVTVSS”, with “low polyreactivity”.
